Experimental data reported in article doi:10.1101/2025.01.09.632221 (bioRxiv, 2025).
One block for each molecule: values may come before it.

How the values were obtained:
[1] = target: sHcp-His6 (Bacteroides fragilis NCTC9343); test: SEC
[2] = target: sHcp-His6 (Bacteroides fragilis NCTC9343); test: SDS-PAGE
[3] = target: T1, Hcp2-His6 (Bacteroides fragilis NCTC9343, UniProt A0A380Z0E1 1-135); test: pull-down
T1 sequence (looked up): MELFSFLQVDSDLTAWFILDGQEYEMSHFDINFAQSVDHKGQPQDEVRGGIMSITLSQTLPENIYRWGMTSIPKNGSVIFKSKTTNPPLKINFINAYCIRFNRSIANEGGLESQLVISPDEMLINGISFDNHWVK

[4] = target: the molecule itself; test: crystal structure

stoichiometry N [1]: 6
stoichiometry N [2]: 3
Molecule: sHcp-His6 (natural protein)

stoichiometry N [3]: 2 Hcp1 per Hcp2 (printed as the ratio 4:2)
B1: Hcp1, untagged, co-expressed in E. coli BL21(DE3) (natural protein, Bacteroides fragilis NCTC9343, UniProt Q5LDT5 1-142, looked up)
chain: MFGHKSFLRIGALGDSSISGLYKDSYELENCHFSFNQGTNTDGKPQTDVRGGTLYLTYAGLPQDDMLRWILNSKKYEDGAIVICDDSDEPLEKILFEQAACTGLNIEYTQKGKAYIHTKIILQVRKIKVGETTFENRWTINE

B2: C-terminal 6His-tagged Se-Met sHcp protein (natural protein, Bacteroides fragilis NCTC9343)
chain: MAFRATLSFAGKEFDVLDCTYSLKRDVDSKGRPSSNIYGGQIRLHVESTDDTSILENMTNQFKPHSGSIVFKKGDEEAKMKELTWENGYITEFTENIDIVGSQPMTITFVVSAQVIKIGGAQFEQNWPK
modifications: selenomethionine in place of methionine
stoichiometry N [4]: 6
